The target in assay [1] is CEA (carcinoembryonic antigen) (UniProt P06731). In words: specificity/enzyme activity assay, CEA-coated plate, substrate in PBS pH 7.2; supernatant diluted 1:8.
Assay [2] has the same target. In words: specificity/enzyme activity assay, CEA-coated plate, substrate in PBS pH 7.2; supernatant diluted 1:128.
Assay [3] concerns the target GIT mucin. In words: specificity/enzyme activity assay, GIT mucin-coated plate (negative control), substrate in PBS pH 7.2; supernatant diluted 1:128.
Assay [4] concerns the target CEA (carcinoembryonic antigen) (UniProt P06731). In words: specificity/enzyme activity assay, CEA-coated plate, substrate in 0.2 M sodium acetate buffer + 0.01% BSA pH 5; supernatant diluted 1:8.
For assay [5] the target is unchanged. Description: specificity/enzyme activity assay, CEA-coated plate, substrate in 0.2 M sodium acetate buffer + 0.01% BSA pH 5; supernatant diluted 1:2.
The target is the same in assay [6]. Description: specificity/enzyme activity assay, CEA-coated plate, substrate in PBS pH 7.2; supernatant diluted 1:64.
Assay [7] shares this target. In words: specificity/enzyme activity assay, CEA-coated plate, substrate in 0.2 M sodium acetate buffer + 0.01% BSA pH 5; supernatant diluted 1:4.
In assay [8] the target is GIT mucin. Description: specificity/enzyme activity assay, GIT mucin-coated plate (negative control), substrate in PBS pH 7.2; supernatant diluted 1:32.
For assay [9], the target named is GIT mucin. In words: specificity/enzyme activity assay, GIT mucin-coated plate (negative control), substrate in PBS pH 7.2; supernatant concentrated.
In assay [10] the target is GIT mucin. Description: specificity/enzyme activity assay, GIT mucin-coated plate (negative control), substrate in PBS pH 7.2; supernatant diluted 1:64.
Assay [11] concerns the target CEA (carcinoembryonic antigen) (UniProt P06731). In words: specificity/enzyme activity assay, CEA-coated plate, substrate in 0.2 M sodium acetate buffer + 0.01% BSA pH 5; supernatant diluted 1:128.
For assay [12] the target is unchanged. Description: specificity/enzyme activity assay, CEA-coated plate, substrate in 0.2 M sodium acetate buffer + 0.01% BSA pH 5; supernatant diluted 1:16.
The target is the same in assay [13]. Description: specificity/enzyme activity assay, CEA-coated plate, substrate in PBS pH 7.2; supernatant diluted 1:4.
For assay [14] the target is unchanged. Description: specificity/enzyme activity assay, CEA-coated plate, substrate in 0.2 M sodium acetate buffer + 0.01% BSA pH 5; supernatant concentrated.
The target is the same in assay [15]. Description: specificity/enzyme activity assay, CEA-coated plate, substrate in PBS pH 7.2; supernatant concentrated.
The target of assay [16] is GIT mucin. In words: specificity/enzyme activity assay, GIT mucin-coated plate (negative control), substrate in PBS pH 7.2; supernatant diluted 1:4.
The target of assay [17] is GIT mucin. Description: specificity/enzyme activity assay, GIT mucin-coated plate (negative control), substrate in PBS pH 7.2; supernatant diluted 1:2.
Assay [18] concerns the target CEA (carcinoembryonic antigen) (UniProt P06731). In words: specificity/enzyme activity assay, CEA-coated plate, substrate in 0.2 M sodium acetate buffer + 0.01% BSA pH 5; supernatant diluted 1:64.
Assay [19] shares this target. In words: specificity/enzyme activity assay, CEA-coated plate, substrate in PBS pH 7.2; supernatant diluted 1:2.
The target is the same in assay [20]. Description: competitive ELISA on CEA-coated plates; competitor murine MAb BW 431/26 at 5 ng/ml, detected with goat anti-mouse Ig-alkaline phosphatase. A general note: An ELISA detects its analyte on a solid surface through an enzyme-linked reagent.
The target in assay [21] is GIT mucin. Description: specificity/enzyme activity assay, GIT mucin-coated plate (negative control), substrate in PBS pH 7.2; supernatant diluted 1:16.
Assay [22] deals with CEA (carcinoembryonic antigen) (UniProt P06731). In words: specificity/enzyme activity assay, CEA-coated plate, substrate in PBS pH 7.2; supernatant diluted 1:16.
For assay [23] the target is unchanged. Description: specificity/enzyme activity assay, CEA-coated plate, substrate in PBS pH 7.2; supernatant diluted 1:32.
Assay [24] has the same target. Description: specificity/enzyme activity assay, CEA-coated plate, substrate in 0.2 M sodium acetate buffer + 0.01% BSA pH 5; supernatant diluted 1:32.
The target in assay [25] is GIT mucin. Description: specificity/enzyme activity assay, GIT mucin-coated plate (negative control), substrate in PBS pH 7.2; supernatant diluted 1:8.

Sequence of UniProt P06731 (P06731 35-685 limits assumed): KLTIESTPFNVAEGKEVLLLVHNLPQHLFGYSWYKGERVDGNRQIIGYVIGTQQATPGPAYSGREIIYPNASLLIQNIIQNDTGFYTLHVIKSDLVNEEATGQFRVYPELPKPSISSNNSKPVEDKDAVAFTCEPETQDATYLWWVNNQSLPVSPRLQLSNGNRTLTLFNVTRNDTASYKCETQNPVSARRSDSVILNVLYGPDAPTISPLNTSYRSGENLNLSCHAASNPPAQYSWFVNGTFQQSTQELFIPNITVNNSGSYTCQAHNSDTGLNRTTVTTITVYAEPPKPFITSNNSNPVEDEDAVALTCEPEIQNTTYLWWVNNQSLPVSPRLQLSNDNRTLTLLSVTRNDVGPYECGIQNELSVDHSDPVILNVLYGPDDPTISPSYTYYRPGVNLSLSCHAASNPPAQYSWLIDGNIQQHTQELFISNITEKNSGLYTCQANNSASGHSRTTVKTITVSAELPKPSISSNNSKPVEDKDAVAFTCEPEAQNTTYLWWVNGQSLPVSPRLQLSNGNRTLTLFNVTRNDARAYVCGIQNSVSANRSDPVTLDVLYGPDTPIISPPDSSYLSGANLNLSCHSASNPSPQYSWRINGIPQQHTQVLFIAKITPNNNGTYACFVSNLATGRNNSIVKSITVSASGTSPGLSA

On to “431/26 hum VH huβGlc 1H fusion protein (from UniProt P01860 1-98; P01860 99-115; P08236 23-651)”, for which the fluorescence of 4-methylumbelliferol liberated by plate-bound fusion protein in assay [1] is 618; in assay [2], 57.9; in [3], 47.5; in [4], 2930; in assay [5], 7680; in [6] it was 99.3. Further, the fluorescence of 4-methylumbelliferol liberated by plate-bound fusion protein in assay [7] came out at 4660; in [8], 40.4; in assay [9], 116; in assay [10] it was 48.2; in assay [11], 192; in assay [12] it was 1660. The fluorescence of 4-methylumbelliferol liberated by plate-bound fusion protein in assay [13] turned out to be 1200; in [14], 9120; in [15] it was 2720; in [16], 73.4; in assay [17] it was 93.4; in assay [18], 425. In addition, the fluorescence of 4-methylumbelliferol liberated by plate-bound fusion protein was determined as 2140 in assay [19]; 53.7 in assay [21]; 332 in assay [22]; 168 in assay [23]; 853 in assay [24]; 60.7 in [25]. The substance also registered a molar excess of competitor at 50% inhibition in assay [20] of 200 molar excess.
In [20], humanized MAb BW 431/26 (antibody) showed a molar excess of competitor at 50% inhibition of 200 molar excess.

For the origin of these results see patent publication US20030064482A1.
